Test results as given in publication doi:10.1101/172809 (bioRxiv, 2017).
One block for each binder: values may come before it.

B1: Dynamin-Related Protein 1 (DRP1), wild type, full length, isoform 2 (enzyme, human, UniProt O00429-3 1-710, looked up)
chain: MEALIPVINKLQDVFNTVGADIIQLPQIVVVGTQSSGKSSVLESLVGRDLLPRGTGIVTRRPLILQLVHVSQEDKRKTTGEENGVEAEEWGKFLHTKNKLYTDFDEIRQEIENETERISGNNKGVSPEPIHLKIFSPNVVNLTLVDLPGMTKVPVGDQPKDIELQIRELILRFISNPNSIILAVTAANTDMATSEALKISREVDPDGRRTLAVITKLDLMDAGTDAMDVLMGRVIPVKLGIIGVVNRSQLDINNKKSVTDSIRDEYAFLQKKYPSLANRNGTKYLARTLNRLLMHHIRDCLPELKTRINVLAAQYQSLLNSYGEPVDDKSATLLQLITKFATEYCNTIEGTAKYIETSELCGGARICYIFHETFGRTLESVDPLGGLNTIDILTAIRNATGPRPALFVPEVSFELLVKRQIKRLEEPSLRCVELVHEEMQRIIQHCSNYSTQELLRFPKLHDAIVEVVTCLLRKRLPVTNEMVHNLVAIELAYINTKHPDFADACGLMNNNIEEQRRNRLARELPSAVSRDKLIQDSRRETKNVASGGGGVGDGVQEPTTGNWRGMLKTSKAEELLAEEKSKPIPIMPASPQKGHAVNLLDVPVPVARKLSAREQRDCEVIERLIKSYFLIVRKNIQDSVPKAVMHFLVNHVKDTLQSELVGQLYKSSLLDDLLTESEDMAQRRKEAADMLKALQGASQIIAEIRETHLW

Key:
cryo-EM structure = target: the molecule itself; assay: cryo-EM structure
SEC = target: the molecule itself; assay: SEC
[1] = target: B1; assay: cryo-EM structure

Binder: B1
- binding result (cryo-EM structure): binds

B2: DRP1_(G362D), full length, disease-associated mutant (enzyme, human, UniProt O00429-3 1-710, looked up)
chain: MEALIPVINKLQDVFNTVGADIIQLPQIVVVGTQSSGKSSVLESLVGRDLLPRGTGIVTRRPLILQLVHVSQEDKRKTTGEENGVEAEEWGKFLHTKNKLYTDFDEIRQEIENETERISGNNKGVSPEPIHLKIFSPNVVNLTLVDLPGMTKVPVGDQPKDIELQIRELILRFISNPNSIILAVTAANTDMATSEALKISREVDPDGRRTLAVITKLDLMDAGTDAMDVLMGRVIPVKLGIIGVVNRSQLDINNKKSVTDSIRDEYAFLQKKYPSLANRNGTKYLARTLNRLLMHHIRDCLPELKTRINVLAAQYQSLLNSYGEPVDDKSATLLQLITKFATEYCNTIEGTAKYIETSELCDGARICYIFHETFGRTLESVDPLGGLNTIDILTAIRNATGPRPALFVPEVSFELLVKRQIKRLEEPSLRCVELVHEEMQRIIQHCSNYSTQELLRFPKLHDAIVEVVTCLLRKRLPVTNEMVHNLVAIELAYINTKHPDFADACGLMNNNIEEQRRNRLARELPSAVSRDKLIQDSRRETKNVASGGGGVGDGVQEPTTGNWRGMLKTSKAEELLAEEKSKPIPIMPASPQKGHAVNLLDVPVPVARKLSAREQRDCEVIERLIKSYFLIVRKNIQDSVPKAVMHFLVNHVKDTLQSELVGQLYKSSLLDDLLTESEDMAQRRKEAADMLKALQGASQIIAEIRETHLW
- stoichiometry N (SEC): 2

- binding result [1]: binds
B3: Mitochondrial Dynamics 49, MID49_(126-454) (domain or fragment, human, UniProt Q96C03-1 126-454, looked up)
chain: TLQERLLAFERDRVTIPAAQVALAKQLAGDIALELQAYFRSKFPELPFGAFVPGGPLYDGLQAGAADHVRLLVPLVLEPGLWSLVPGVDTVARDPRCWAVRRTQLEFCPRGSSPWDRFLVGGYLSSRVLLELLRKALAASVNWPAIGSLLGCLIRPSMASEELLLEVQHERLELTVAVLVAVPGVDADDRLLLAWPLEGLAGNLWLQDLYPVEAARLRALDDHDAGTRRRLLLLLCAVCRGCSALGQLGRGHLTQVVLRLGEDNVDWTEEALGERFLQALELLIGSLEQASLPCHFNPSVNLFSSLREEEIDDIGYALYSGLQEPEGLL
